Experimental findings from PMC5356271 (2017) are described below.

First the molecules themselves.
B1: HIV-1 Vif, wild type [HIV-1] / Flag-CBFβ (core-binding factor β), wild type [not stated] (parent complex)
chain 1: not shown
chain 2: MPRVVPDQRSKFENEEFFRKLSRECEIKYTGFRDRPHEERQARFQNACRDGRSEIAFVATGTNLSLQFFPASWQGEQRQTPSREYVDLEREAGKVYLKAPMILNGVCVIWKGWIDLQRLDGMGCLEFDEERAQQEDALAQQAFEEARRRTREFEDRDRSHREEMEVRVSQ

The assay covers variants of B1. Briefly: co-immunoprecipitation (Flag IP) with immunoblot quantification; 293T cells treated with CBFβ-specific siRNA; MG132 (5 μM) for 16-h; read off a plot.
chain 2 F68A: the percent of parent is around 76 % WT CBFβ.
Next, chain 2 I55A: around 68 % WT CBFβ.
